According to patent publication US20130101601A1 (ANAPTYSBIO, published 2013):
Where a chain is given by its changes, count along the chain named. In names and notes the source's numbering stands.

Assays:
[1] = biological target: T1, human βNGF (Nerve Growth Factor) (human, UniProt P01138 122-241, limits assumed); experiment: Biacore and flow cytometry-based antigen-binding assays
T1 construct: In the FACS rounds it was used biotinylated, fluorochrome-labelled or fused to wasabi fluorescent protein; The construct used in the Biacore runs is not described; also called hβNGF

[2] = biological target: T1, human βNGF (Nerve Growth Factor); experiment: kinetic characterization (Biacore)
[3] = biological target: T1, human βNGF (Nerve Growth Factor); experiment: Biacore, purified antibody captured at low density (Rmax<30)
Excerpt: Mutations observed in both strategies not utilized by APE803 were recombined by overlap extension PCR in a combinatorial library, each HC/LC pair was expressed and characterized on Biacore utilizing direct capture of secreted antibodies.

T1 sequence (P01138 122-241 limits assumed): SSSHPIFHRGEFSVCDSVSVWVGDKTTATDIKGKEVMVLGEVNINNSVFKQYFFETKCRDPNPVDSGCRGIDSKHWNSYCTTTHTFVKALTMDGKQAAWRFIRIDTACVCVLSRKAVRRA

B1: APE391 (antibody, V domains shown)
VH: QVQLVQSGAEVKKPGSSVKVSCKASGGTFSNYAISWVRQAPGQGLEWMGGIIPIFGTANYAQKFQGRVTITADESTSTAYMELSSLRSEDTAVYYCARGPEYYDYVWGSYRYNYFDYWGQGTLVTV
VL: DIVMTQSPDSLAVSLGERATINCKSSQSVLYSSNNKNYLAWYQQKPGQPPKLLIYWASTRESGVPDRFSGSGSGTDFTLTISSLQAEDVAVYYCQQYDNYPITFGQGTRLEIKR
notes: Fully human IgG; also called HC/LC pair from SCC C10A
Q: Does B1 bind [1]?
A: binds

B2: APE583 (antibody, V domains shown)
VH: B1 VH with L45F
VL: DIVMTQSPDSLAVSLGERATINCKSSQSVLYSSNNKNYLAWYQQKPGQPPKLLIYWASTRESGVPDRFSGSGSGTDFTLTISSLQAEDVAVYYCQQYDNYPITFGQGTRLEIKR
notes: APE391 with the HC mutation L45F
Q: Does B2 bind [2]?
A: binds

B3: APE803 (antibody, V domains shown)
VH: QVQLVQSGAEVKKPGSSVKVSCKASGDTFSNYATGDTFSNYAISWVRQAPGQGFEWMGGIIPIFGTANYAQKFQGRVTITADESTSTAYMELSSLRSEDTAVYYCARGPEYYAYVWGSYRYNYFDYWGQGTLVTV
VL: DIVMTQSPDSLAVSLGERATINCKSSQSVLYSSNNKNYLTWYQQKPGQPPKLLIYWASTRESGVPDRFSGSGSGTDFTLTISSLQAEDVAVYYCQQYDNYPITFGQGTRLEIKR
notes: HC CDR3 mutation D100A in the context of the APE646 variant
Q: Which results are given for B3?
A: Kd [2]: 760 pM; fold improvement in kon (against APE646) [2]: 100 fold

B4: APE925 (antibody, V domains shown)
VH: B3 VH with S30N, G53R, G65D, S86N, R120S
VL: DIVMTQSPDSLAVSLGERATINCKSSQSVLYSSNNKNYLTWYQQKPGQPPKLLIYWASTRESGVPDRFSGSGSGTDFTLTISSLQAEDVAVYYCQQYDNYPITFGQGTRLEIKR
Q: How did the Kd [3] turn out when B4 was run?
A: 25 pM
